Values quoted from earlier work as cited in article PMC9157009, “Protein proximity networks and functional evaluation of the casein kinase 1 gamma family reveal unique roles for CK1γ3 in WNT signaling” (The Journal of Biological Chemistry, 2022).

Tested on: β-catenin-dependent transcription
Details: siRNA screen, BAR firefly luciferase reporter, ref Biechele et al

Average BAR firefly Luciferase (Raw) (raw signal per siRNA target): 104670
B1: MAGI1 (protein, UniProt Q96QZ7 1-1491, looked up)
Membrane-associated guanylate …: MSKVIQKKNHWTSRVHECTVKRGPQGELGVTVLGGAEHGEFPYVGAVAAVEAAGLPGGGEGPRLGEGELLLEVQGVRVSGLPRYDVLGVIDSCKEAVTFKAVRQGGRLNKDLRHFLNQRFQKGSPDHELQQTIRDNLYRHAVPCTTRSPREGEVPGVDYNFLTVKEFLDLEQSGTLLEVGTYEGNYYGTPKPPSQPVSGKVITTDALHSLQSGSKQSTPKRTKSYNDMQNAGIVHAENEEEDDVPEMNSSFTADSGEQEEHTLQETALPPVNSSIIAAPITDPSQKFPQYLPLSAEDNLGPLPENWEMAYTENGEVYFIDHNTKTTSWLDPRCLNKQQKPLEECEDDEGVHTEELDSELELPAGWEKIEDPVYGIYYVDHINRKTQYENPVLEAKRKKQLEQQQQQQQQQQQQQQQQQQQQTEEWTEDHSALVPPVIPNHPPSNPEPAREVPLQGKPFFTRNPSELKGKFIHTKLRKSSRGFGFTVVGGDEPDEFLQIKSLVLDGPAALDGKMETGDVIVSVNDTCVLGHTHAQVVKIFQSIPIGASVDLELCRGYPLPFDPDDPNTSLVTSVAILDKEPIIVNGQETYDSPASHSSKTGKVNGMKDARPSSPADVASNSSHGYPNDTVSLASSIATQPELITVHIVKGPMGFGFTIADSPGGGGQRVKQIVDSPRCRGLKEGDLIVEVNKKNVQALTHNQVVDMLVECPKGSEVTLLVQRGGLPVPKKSPKSQPLERKDSQNSSQHSVSSHRSLHTASPSHSTQVLPEFPPAEAQAPDQTDSSGQKKPDPFKIWAQSRSMYENRPMSPSPASGLSKGEREREINSTNFGECPIPDYQEQDIFLWRKETGFGFRILGGNEPGEPIYIGHIVPLGAADTDGRLRSGDELICVDGTPVIGKSHQLVVQLMQQAAKQGHVNLTVRRKVVFAVPKTENEVPSPASSHHSSNQPASLTEEKRTPQGSQNSLNTVSSGSGSTSGIGSGGGGGSGVVSTVVQPYDVEIRRGENEGFGFVIVSSVSRPEAGTTFAGNACVAMPHKIGRIIEGSPADRCGKLKVGDRILAVNGCSITNKSHSDIVNLIKEAGNTVTLRIIPGDESSNATLLTNAEKIATITTTHTPSQQGTQETRNTTKPKQESQFEFKAPQATQEQDFYTVELERGAKGFGFSLRGGREYNMDLYVLRLAEDGPAERCGKMRIGDEILEINGETTKNMKHSRAIELIKNGGRRVRLFLKRGDGSVPEYDPSSDRHGPATGPQGVPEVRAGPDRRQHPSLESSYPPDLHKSSPHGEKRAHARDPKGSREYSRQPNEHHTWNGTSRKPDSGACRPKDRAPEGRRDAQAERAAAANGPKRRSPEKRREGTRSADNTLERREKHEKRRDVSPERRRERSPTRRRDGSPSRRRRSLERLLEQRRSPERRRGGSPERRAKSTDRRRARSPERRRERSLDKRNREDRASHREREEANLKQDAGRSSRHPPEQRRRPYKECSTDLSI
Fold over control siRNA (fold over control siRNA): 3.957
